{
  "source": "paper PMC4767637",
  "target": "STAT3 (127-711)-His6 I568F (HIES mutant) (human) (UniProt P40763)",
  "sequence (P40763 127-711 I568F)": "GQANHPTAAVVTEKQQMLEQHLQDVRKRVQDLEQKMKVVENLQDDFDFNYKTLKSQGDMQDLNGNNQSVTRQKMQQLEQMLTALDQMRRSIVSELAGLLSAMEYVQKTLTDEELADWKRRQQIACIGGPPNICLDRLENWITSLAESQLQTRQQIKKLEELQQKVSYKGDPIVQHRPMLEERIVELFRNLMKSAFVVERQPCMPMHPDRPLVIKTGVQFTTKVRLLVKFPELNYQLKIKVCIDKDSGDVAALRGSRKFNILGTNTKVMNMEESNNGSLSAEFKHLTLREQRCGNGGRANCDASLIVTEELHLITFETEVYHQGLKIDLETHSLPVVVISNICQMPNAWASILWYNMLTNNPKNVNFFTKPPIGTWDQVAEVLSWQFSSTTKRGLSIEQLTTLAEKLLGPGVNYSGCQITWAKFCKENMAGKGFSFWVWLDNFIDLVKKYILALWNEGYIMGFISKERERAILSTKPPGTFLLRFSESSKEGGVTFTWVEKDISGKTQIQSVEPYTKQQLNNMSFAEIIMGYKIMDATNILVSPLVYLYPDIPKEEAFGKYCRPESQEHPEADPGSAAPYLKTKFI",
  "assay": "ITC",
  "data": [
    {"substance": "phosphotyrosine peptide derived from gp130 (pY904)", "values": [
      {"measurement": "fold reduction in binding affinity against WT STAT3", "result": 5, "unit": "fold"}
    ]}
  ]
}
